In patent US20160194641, “G-RICH isoDNA SEQUENCES FORMING G-QUADRUPLEX STRUCTURE, THEIR FUNCTION AS [sequence] AND A PROCESS FOR THE PREPARATION THEREOF” (COUNCIL OF SCIENTIFIC & INDUSTRIAL RESEARCH, published 2016):

Biological target: thrombin (Bos taurus, UniProt P00735;P00735 P00735:318-366,P00735:367-625)
Assay: CD titration at 295 nm, low temperature, without K+; signal increases with thrombin; Tm with thrombin 22 C (53 C with K+)
Details: tags: copies: 1; antiparallel unimolecular G4
Method: CD spectra were recorded on Jasco J-815 CD Spectrometer equipped with a Jasco PTC-424S/15 peltier system. 2 mm path-length quartz cuvettes were used for a sample volume 500 μl and strand concentration of 5 μM in 10 mM Na/K-phosphate buffer (pH 7.5) containing 100 mM NaCl/KCl respectively. Oligomers prepared in buffer were annealed by heating at 95° C. for 5 minutes, then slowly cooled to room temperature, followed by refrigeration for 5-6 hours before use. Spectral scans were collected over a wavelength range 200-320 nm at a scanning rate of 100 nm min⁻¹. The spectra were collected as an average of three scans for each sample.
Biochem. Biophys. Res. Commun. 352, 812-817 (2007). […] An increase in the CD signal amplitude upon incremental addition of thrombin is observed even at relatively low concentrations of thrombin. In case of isod-TBA-2 and isod-TBA-3, CD band at 295 nm and G-quadruplex structure was not evident in the absence of either thrombin or K⁺, which is also supported by ¹H NMR. Upon incremental addition of thrombin, the CD maximum at 295 nm emerges for isod-TBA-2 and isod-TBA-3. […] Further, the temperature-dependent stability of the quadruplex structure was followed by recording the CD amplitude at 295 nm with increasing temperature. The strength of d-TBA-1 G-quadruplex was the highest with Tₘ=22° C., followed by iso-d-TBA-3 (Tₘ 13° C.) and iso-d-TBA-2 (Tₘ<10° C.). […]

B1: d-TBA-1 (structured_DNA)
DNA: GGTTGGTGTGGTTGG
Question: Does B1 bind?
Answer: binds
